Consider 23 sequences from the Immune Epitope Database (IEDB).

Assay in all cases: IEDB peptide-MHC binding, purified MHC/competitive/radioactivity; filed as Kd, often an IC50 or EC50 that approximates it; ≥ and ≤ were set here for values at or beyond the usual limits of such assays
For assay [1], the target named is HLA-A*11:01.
The target of assay [2] is HLA-A*33:01.
For assay [3], the target named is HLA-A*03:01.
For assay [4], the target named is HLA-A*31:01.
For assay [5], the target named is HLA-A*68:01.
Setting [6] is: source organism: Vaccinia virus WR.
Setting [7] is: source organism: Lassa virus Josiah.
Setting [8] is: source organism: SARS coronavirus Tor2.
Where [9] appears, read: source organism: Triticum aestivum.

Usually Kd stands for the concentration at which binding is half-saturated. For KAGNILFWPY, the Kd was 363 nM in assay [1] (setting [6]); not below 70 µM in assay [2] (setting [6]); 248 nM in assay [3] (setting [6]); not below 22500 nM in assay [4] (setting [6]); 14000 nM in assay [5] (setting [6]).

Take KAMLYIIRR: the Kd turned out to be 14.5 nM in assay [1] (setting [6]); 0.15 µM in assay [2] (setting [6]); 1200 nM in assay [3] (setting [6]); 0.319 nM in assay [4] (setting [6]); 19.8 nM in assay [5] (setting [6]).

Consider LFSKNILKY, for which the dissociation constant (Kd) in assay [1] (setting [6]) worked out at 5990 nM; in assay [2] (setting [6]), 8.62 µM; in assay [3] (setting [6]), 191 nM; in assay [4] (setting [6]), 3890 nM; in assay [5] (setting [6]) it was 444 nM.

As for LISLNSMYTR, the Kd in assay [1] (setting [6]) was 22.8 nM; in assay [2] (setting [6]) it was 0.115 µM; in assay [3] (setting [6]), 1090 nM; in assay [4] (setting [6]), 1.11 nM; in assay [5] (setting [6]), 38.6 nM.

Take LLKILDNLR: the Kd in assay [1] (setting [6]) turned out to be 629 nM; in assay [2] (setting [6]) it was 0.086 µM; in assay [3] (setting [6]) it was 19600 nM; in assay [4] (setting [6]) it was 20.9 nM; in assay [5] (setting [6]) it was 700 nM.

For the sequence LLNETAKVIK, the dissociation constant Kd in assay [1] (setting [6]) amounted to 230 nM; in assay [2] (setting [6]), 15.4 µM; in assay [3] (setting [6]) it was 1590 nM; in assay [4] (setting [6]) it was 2430 nM; in assay [5] (setting [6]), 4000 nM.

Turning to LMWNKQFIK, the equilibrium dissociation constant (Kd) in assay [1] (setting [6]) was determined as 2.57 nM; in assay [2] (setting [6]), 0.0318 µM; in assay [3] (setting [6]) it was 6.26 nM; in assay [4] (setting [6]), 12.9 nM; in assay [5] (setting [6]), 200 nM.

Regarding LMYALEPRK, the dissociation constant Kd in assay [1] (setting [6]) was 53.9 nM; in assay [2] (setting [6]), not below 25.9 µM; in assay [3] (setting [6]), 5.59 nM; in assay [4] (setting [6]), 5640 nM; in assay [5] (setting [6]) it was 808 nM.

On to LSCAVHLIIY, for which the Kd in assay [1] (setting [6]) is not below 61400 nM; in assay [2] (setting [6]), 3.83 µM; in assay [3] (setting [6]), 10600 nM; in assay [4] (setting [6]), 5370 nM; in assay [5] (setting [6]), 361 nM.

On to LTYSQLMTLK, for which the Kd was found to be 11.5 nM in assay [1] (setting [7]); 10.7 µM in assay [2] (setting [7]); 29.7 nM in assay [3] (setting [7]); 1960 nM in assay [4] (setting [7]); 5 nM in assay [5] (setting [7]).

In the case of LVTRKCPQKK, the dissociation constant (Kd) is 15900 nM in assay [1] (setting [6]); not below 70 µM in assay [2] (setting [6]); not below 70100 nM in assay [3] (setting [6]); not below 70000 nM in assay [4] (setting [6]); not below 70200 nM in assay [5] (setting [6]).

Consider MSRGYFEHMK, for which the dissociation constant (Kd) in assay [1] (setting [6]) was 7.24 nM; in assay [2] (setting [6]), 2.17 µM; in assay [3] (setting [6]), 31.8 nM; in assay [4] (setting [6]), 22 nM; in assay [5] (setting [6]), 8.88 nM.

Take MSRVRISLIY: the Kd in assay [1] (setting [6]) amounted to 548 nM; in assay [2] (setting [6]) it was 10.6 µM; in assay [3] (setting [6]) it was 270 nM; in assay [4] (setting [6]) it was 3120 nM; in assay [5] (setting [6]), 262 nM.

As for MTLDDLAIK, the Kd in assay [1] (setting [6]) stood at 37.1 nM; in assay [2] (setting [6]), 2.34 µM; in assay [3] (setting [6]), 927 nM; in assay [4] (setting [6]), 408 nM; in assay [5] (setting [6]) it was 39.8 nM.

For MTLVPVLEKK, the Kd in assay [1] (setting [6]) was found to be 0.466 nM; in assay [2] (setting [6]) it was 0.869 µM; in assay [3] (setting [6]), 8.42 nM; in assay [4] (setting [6]), 122 nM; in assay [5] (setting [6]), 1.31 nM.

Turning to NLKQLPFFYY, the Kd in assay [1] (setting [8]) is 5350 nM; in assay [2] (setting [8]), not below 70 µM; in assay [3] (setting [8]) it was not below 36000 nM; in assay [4] (setting [8]), not below 70000 nM; in assay [5] (setting [8]), not below 10000 nM.

In the case of NMINKLYGY, the Kd in assay [1] (setting [6]) is 18600 nM; in assay [2] (setting [6]), 14.3 µM; in assay [3] (setting [6]), 2560 nM; in assay [4] (setting [6]), not below 37800 nM; in assay [5] (setting [6]), not below 31900 nM.

As to NVTLFYCDER, the Kd turned out to be 2830 nM in assay [1] (setting [6]); 0.818 µM in assay [2] (setting [6]); 6080 nM in assay [3] (setting [6]); 777 nM in assay [4] (setting [6]); 8.23 nM in assay [5] (setting [6]).

Take NVVHAIILH: the Kd is not below 42800 nM in assay [1] (setting [9]); not below 24.6 µM in assay [2] (setting [9]); 19500 nM in assay [3] (setting [9]); 14000 nM in assay [4] (setting [9]); 1490 nM in assay [5] (setting [9]).

Consider PLTSLVITY, for which the Kd is not below 22100 nM in assay [1] (setting [6]); not below 46.8 µM in assay [2] (setting [6]); 13900 nM in assay [3] (setting [6]); 1880 nM in assay [4] (setting [6]); 5600 nM in assay [5] (setting [6]).

PTKRCRLLK: the equilibrium dissociation constant (Kd) is 1040 nM in assay [1] (setting [6]); not below 23.7 µM in assay [2] (setting [6]); 1090 nM in assay [3] (setting [6]); 5310 nM in assay [4] (setting [6]); not below 22700 nM in assay [5] (setting [6]).

As for QLLKILDNLR, the Kd was 15100 nM in assay [1] (setting [6]); 5.63 µM in assay [2] (setting [6]); not below 70100 nM in assay [3] (setting [6]); 69.1 nM in assay [4] (setting [6]); 561 nM in assay [5] (setting [6]).

QQFANVISK: the Kd in assay [1] (setting [6]) was 2.38 nM; in assay [2] (setting [6]), not below 28.3 µM; in assay [3] (setting [6]), 55.6 nM; in assay [4] (setting [6]) it was 1320 nM; in assay [5] (setting [6]) it was 710 nM.
